B1: BioACg: Enzyme candidate for BDO biosynthetic pathway step A4, SEQ ID NO. 29 (protein, listed as Corynebacterium glutamicum)
chain: MENPSLRELDHRNIWHPYAAPGVRNRLVTKTDGVFLTLEDGSTVIDAMSSWWSAIHGHGHPRLKAAAQKQIDTMSHVMFGGLTHEPAIKLTHKLLNLTGNSFDHVFYSDSGSVSVEVAIKMALQASKGQGHPERTKLLTWRSGYHGDTFTAMSVCDPENGMHSLWKGTLPEQIFAPAPPVRGSSPQAISEYLRSMELLIDETVSAIIIEPIVQGAGGMRFHDVALIEGVATLCKKHDRFLIVDEIATGFGRTGELFATLSNGLQPDIMCVGKALTGGFMSFAATLCTDKVAQLISTPNGGGALMHGPTFMANPLACAVSHASLEIIETGMWQKQVKRIEAELIAGLSPLQHLPGVADVRVLGAIGVIEMEQNVNVEEATQAALDHGVWIRPFGRLLYVMPPYITTSEQCAQICTALHAAVKGK
B2: IlvECg: Enzyme candidate for BDO biosynthetic pathway step A4, SEQ ID NO. 28 (protein, listed as Corynebacterium glutamicum)
chain: MYLSGSRCTLKSMTSLEFTVTRTENPTSPDRLKEILAAPKFGKFFTDHMVTIDWNESEGWHNAQLVPYAPIPMDPATTVFHYGQAIFEGIKAYRHSDETIKTFRPDENAERMQRSAARMAMPQLPTEDFIKALELLVDADQDWVPEYGGEASLYLRPFMISTEIGLGVSPADAYKFLVIASPVGAYFTGGIKPVSVWLSEDYVRAAPGGTGDAKFAGNYAASLLAQSQAAEKGCDQVVWLDAIEHKYIEEMGGMNLGFIYRNGDQVKLVTPELSGSLLPGITRKSLLQVARDLGYEVEERKITTTEWEEDAKSGAMTEAFACGTAAVITPVGTVKSAHGTFEVNNNEVGEITMKLRETLTGIQQGNVEDQNGWLYPLVG
B3: BcaTLp: Enzyme candidate for BDO biosynthetic pathway step A4, SEQ ID NO. 34 (protein, listed as Lactobacillus plantarum)
chain: MADVQLDWNNLGFEYRNLPYRYRAYWKDGAWYKKELTGDATLHISEGSTALHYGQQDFEGLKAYRTKDGSVQLFRPDRNAARMQTSCERLLMPQVPTDMFVDAVKQVVKANQDYVPPYGTGATLYLRPLMIGVGGNIGVHPAQEYIFTVFAMPVGSYFKGGMTPTNFTTSEYDRAAHKGTGAYKVGGNYAASLFPGQEAHANGFSDCVYLDPVEHRKIEEVGSANFFGITKDGTFVTPKSPSILPAVTKYSLLYLAEHKFGMKTEQGDVYIDDLDRFAEAGACGTAAVISPIGGLEHQGKLHVFYSETEVGPVTKKLYDELTGIQFGDREAPEGWVQKVELD
B4: BATlY1: Enzyme candidate for BDO biosynthetic pathway step A4, SEQ ID NO. 31 (protein, listed as Yarrowia lipolytica)
chain: MLRNNLRSLSRAFSTSSMRLGAGMDASKLQITKTKSPKEKQAPKDLIFGHTFTDHMLTVEWTAKDGWAAPQITPYGPLELDPSAVVLHYAFECFEGLKAYKDESGNVRLFRVDKNMHRMNTSAERICLPEFDGAEAAKLIGQLAKLDSAWIPEGRGYSMYLRPSLIGTTAALGVGTPDKALFYVIASPVGPYYPTGFKAVKLEATDYAVRAWPGGVGNKKLGANYAPCIKPQQQAASRGYQQNLWLFGDEGNITEVGTMNAFFVFERNGKKELVTAPLDGTILEGVTRDSILELARERLPSADWIVSERYCTIKEVAEAAEKGELVEAFGAGTAAVVSPIKEIGWGEKTINIPLQPGKEAGKLTETVNEWIGDIQYGKDEYKGWSKVV
B5: PdcZm: Enzyme candidate for BDO biosynthetic pathway step A5, SEQ ID NO. 38 (protein, listed as Zymomonas mobilis)
chain: MSYTVGTYLAERLVQIGLKHHFAVAGDYNLVLLDNLLLNKNMEQVYCCNELNCGFSAEGYARAKGAAAAVVTYSVGALSAFDAIGGAYAENLPVILISGAPNNNDHAAGHVLHHALGKTDYHYQLEMAKNITAAAEAIYTPEEAPAKIDHVIKTALREKKPVYLEIACNIASMPCAAPGPASALFNDEASDEASLNAAVEETLKFIANRDKVAVLVGSKLRAAGAEEAAVKFADALGGAVATMAAAKSFFPEENPHYIGTSWGEVSYPGVEKTMKEADAVIALAPVFNDYSTTGWTDIPDPKKLVLAEPRSVVVNGIRFPSVHLKDYLTRLAQKVSKKTGALDFFKSLNAGELKKAAPADPSAPLVNAEIARQVEALLTPNTTVIAETGDSWFNAQRMKLPNGARVEYEMQWGHIGWSVPAAFGYAVGAPERRNILMVGDGSFQLTAQEVAQMVRLKLPVIIFLINNYGYTIEVMIHDGPYNNIKNWDYAGLMEVFNGNGGYDSGAGKGLKAKTGGELAEAIKVALANTDGPTLIECFIGREDCTEELVKWGKRVAAANSRKPVNKLL
B6: PdcBc: Enzyme candidate for BDO biosynthetic pathway step A5, SEQ ID NO. 42 (protein, listed as Bacillus cereus)
chain: MKKQYTVSTYLLDRLHELGIEHIFGVPGDYNLAFLDDVVAHENLKWIGNCNELNAAYAADGYARIKGIAALITTFGVGELSAINGIAGSYAENVPVIKITGTPPTKVMENGAIVHHTLGDGKFDHFSNMYREITVAQTNVTPEHAAEEIDRVLRACWNEKRPVHINLPIDVYNKPINKPTEPIINKPILSNKEALNKMLLHAISKINSAKKPVILADFEVDRFHAKENLHQFVEKTGFPIATLSMGKGIFPEKHPQFIGIYTGDVSSPYLRKRIDESDCIISIGVKLTDTITGGFTQGFTKEQVIEIHPYTVKIIDKKYGPVVMQDVLQHLSDSIEHRNKDTLDVKPFILESSPFTEEFIPKAQMVTQKRFWQQMYHFLQENDVLIVEQGTPFFGSSAIPLPNNTAYVGQPLWGSIGYTLPALLGTQLANLSRRNILIIGDGSFQVTAQELSTILRQNLKPIIFLINNNGYTVERAIHGQNQLYNDIQMWDYNKLSMVFGAEEKSLTFKVENEAELAAVLTNITFNKNQLIFIEVIMSQSDQPELLAKLGKRSGQQNS
B7: PdcSs: Enzyme candidate for BDO biosynthetic pathway step A5, SEQ ID NO. 41 (protein, listed as Staphylococcus saprophyticus)
chain: MKKRVGQYLMDCISDVGVDKVFGVPGDFNLTFLDDIISRDDMEWIGNTNELNASYAADGYARMKGIAAMVTTFGVGELSAVNGIAGSYAERVPVIQITGAPTRAVESAGKYVHHSLGEGNFDDYRNMYASITTAQAYITPENAQSEIPRVINAALYEKRPVHIHLPIDVANSEIDVATPFEIEQRPQTDVTKYMTMVKDKLQSADKPVIITGHEINSFKLHEKLEQFVKQSQIPVVQLSLGKGAFNETSPYYMGIYDASLAEEDIRNYVDQSDAILNIGAKLTDSATAGYSYQFDIDDVVMINHHHFKMNETKDTEVSLVDLLDGLNAINYVNNAEFPKFKQPKAHDYDLTDEPLTQETYFKMMQDFIREEDVILAEQGTSFFGAYDLALKHNNKFIGQPLWGSIGYTLPATLGTQMADTSRRNLLLIGDGSLQLTVQEISTMIREKIKPIIFVINNDGYTVERKIHGENAMYNDIKMWDYKLLPTVFGGKDEVQVHDVNTSEAFQKVLLQIEAQPDTMHFIEVKMGVHDAPHKLNAIGQAFAKQNG

These molecules were tested on 5-hydroxy-L-norvaline (assay: Enzyme assay, aminotransferase (step A4), cell lysates). Conditions: BDO biosynthetic pathway step A4.
Format: biochemical
Parameters: key: +: measureable activity detected in the assay; −: no measurable activity detected in the assay
Method: (§1) Enzyme expression and crude lysate preparation. The enzymatic activity of each candidate enzyme is evaluated, first in E. coli and subsequently in C. glutamicum. It will be apparent to one of skill in the art that the expression and lysate preparations may need to be modified depending on the host cell and recombinant gene of interest.
(§2) E. coli: E. coli strains transformed with expression clones, for example, pUC18 or MB4124 based clones having a medium strong constitutive promoter regulating the recombinant gene of interest, are grown aerobically in LB medium (Difco) containing the appropriate antibiotic(s). At an OD600 of 0.5, IPTG is added to a final concentration of 0.25 mM. The cultures are grown to a final OD600 of 1.5 at which time the cells are collected and harvested by centrifugation. Cell pellets are resuspended in BugBuster (Novagen) reagent containing benzonase and lysozyme. Alternatively, E. coli strains transformed with expression clones, are grown overnight aerobically at 37° C. in BHI containing the appropriate antibiotic(s). 300 μL of fresh overnight culture is used to inoculate 2.7 mL BHI containing 0.25 mM IPTG and the appropriate antibiotic. The cultures are grown aerobically for 4-5 hours at 37° C. at which time the cells are collected and harvested by centrifugation. Cell pellets are frozen at −80° C. for at least 15 minutes, then thawed and resuspended in BugBuster (Novagen) reagent. Lysis and lysate collection are performed according to the manufacturer's instructions and, for example, may involve use of a sonicator and/or French press. Cleared lysates are stored on ice until enzyme assays are performed.
C. glutamicum: C. glutamicum strains transformed with MB4124 expression clones containing the recombinant gene of interest are grown aerobically in BHI broth supplemented with the proper antibiotic(s). At an OD600 of 0.5, IPTG is added to a final concentration of 0.25 mM. The cultures are grown to a final OD600 of 1.5 at which time the cells are collected and harvested by centrifugation. The pellet is washed once in one volume of water and resuspended in lysis buffer (1.0 ml 1.0 M HEPES buffer, pH 7.5, 0.5 ml 1M KOH, 10 μl 0.5M EDTA, protease inhibitor cocktail, water to 5 ml; the final pH will vary depending on the individual enzyme being tested) and one volume of 0.1 mm acid washed glass beads. The mixture is repeatedly alternately vortexed and held on ice for 15 seconds, eight times. After centrifugation for 5 min at 4,000 rpm, the supernatant lysate is removed and respun for 20 min at 10,000 rpm. Alternatively, C. glutamicum strains transformed with MB4124 expression clones containing the recombinant gene of interest are grown aerobically overnight in BHI broth supplemented with the proper antibiotic(s). Five mL of fresh overnight culture is used to inoculate 200 mL BHI containing 0.25 mM IPTG and the appropriate antibiotic. The cultures are grown aerobically at 30° C. for 5-7 hours at which time the cells are collected and harvested by centrifugation at 4° C. The pellet is resuspended in 15 mL ice cold 39 mM KH2PO4, 61 mM K2HPO4, 0.5 M KCl and lysed using a BioSpec BeadBeater and following the manufacturer's instructions. […]
Protein Assays. Protein concentrations in lysates are determined according to the methods of Bradford et al. (Anal. Biochem. 72:248-254 [1976]) or by the method of Smith et al. (Anal. Biochem. 150(1):76-85 [1985]) and lysates are assayed according to the methods below. […]
For B1, the “Enzyme Assay” value was “−”. With B2 the “Enzyme Assay” value was “−”. With B3 the “Enzyme Assay” value was “−”. With B4 the “Enzyme Assay” value was “−”.

These molecules were tested on 5-hydroxy-2-oxopentanoate (assay: Enzyme assay, decarboxylase (step A5), aldehyde dehydrogenase linked reaction). Conditions: BDO biosynthetic pathway step A5.
Format: biochemical
Parameters: key: +: measureable activity detected in the assay; −: no measurable activity detected in the assay
Method: as §1, §2
C. glutamicum: C. glutamicum strains transformed with MB4124 expression clones containing the recombinant gene of interest are grown aerobically in BHI broth supplemented with the proper antibiotic(s). At an OD600 of 0.5, IPTG is added to a final concentration of 0.25 mM. The cultures are grown to a final OD600 of 1.5 at which time the cells are collected and harvested by centrifugation. The pellet is washed once in one volume of water and resuspended in lysis buffer (1.0 ml 1.0 M HEPES buffer, pH 7.5, 0.5 ml 1M KOH, 10 μl 0.5M EDTA, protease inhibitor cocktail, water to 5 ml; the final pH will vary depending on the individual enzyme being tested) and one volume of 0.1 mm acid washed glass beads. The mixture is repeatedly alternately vortexed and held on ice for 15 seconds, eight times. After centrifugation for 5 min at 4,000 rpm, the supernatant lysate is removed and respun for 20 min at 10,000 rpm. Alternatively, C. glutamicum strains transformed with MB4124 expression clones containing the recombinant gene of interest are grown aerobically overnight in BHI broth supplemented with the proper antibiotic(s). Five mL of fresh overnight culture is used to inoculate 200 mL BHI containing 0.25 mM IPTG and the appropriate antibiotic. The cultures are grown aerobically at 30° C. for 5-7 hours at which time the cells are collected and harvested by centrifugation at 4° C. The pellet is resuspended in 15 mL ice cold 39 mM KH2PO4, 61 mM K2HPO4, 0.5 M KCl and lysed using a BioSpec BeadBeater and following the manufacturer's instructions. The lysate is centrifuged at 16,000 RPM at 4° C. for 30 minutes and the supernatant retained on ice as the extract.
Protein Assays. Protein concentrations in lysates are determined according to the methods of Bradford et al. (Anal. Biochem. 72:248-254 [1976]) or by the method of Smith et al. (Anal. Biochem. 150(1):76-85 [1985]) and lysates are assayed according to the methods below.
Enzyme Assays. Enzyme assays are performed on the cell lysates prepared above. The activity for each recombinant enzyme is compared to a lysate from a vector only control culture which is generated in a fashion identical to the recombinant enzyme lysate. […]
In the case of B5, the “Enzyme Assay” value is reported as “−”. For B6, the “Enzyme Assay” value was “−”. For B7, the “Enzyme Assay” value was “−”.

These molecules were tested on 5-hydroxy-2-oxopentanoate (assay: In vitro substrate conversion assay, step A5). Conditions: BDO biosynthetic pathway step A5.
Format: biochemical
Parameters: key: +: measureable activity detected in the assay; −: no measurable activity detected in the assay
Method: In Vitro Substrate Conversion. Most of the enzyme assays described above are based on recording changes in absorbance at a given wavelength. In addition to such spectrophotometric readouts, these assays can also be analyzed by more direct methods using an endpoint assay where the reaction is terminated after a given period of time and the mixture is analyzed via HPLC or LC-MS methods.
(§3) The aldehyde dehydrogenase linked reaction was used for step A5.
In the case of B5, the “In Vitro Substrate Conversion Assay” value is reported as “−”. For B6, the “In Vitro Substrate Conversion Assay” value was “−”. With B7 the “In Vitro Substrate Conversion Assay” value was “−”.

These molecules were tested on 5-hydroxy-2-oxopentanoate (assay: Bioconversion (feeding) assay, step A5). Conditions: BDO biosynthetic pathway step A5.
Format: cell-based
Parameters: key: +: measureable activity detected in the assay; −: no measurable activity detected in the assay
Method: Bioconversion assays. The activity of a candidate enzyme towards a given substrate can also be evaluated in vivo using a simple feeding assay. A strain expressing the candidate enzyme is grown in the presence of the substrate for which activity is desired. Samples of the culture are removed periodically and the cells are removed via centrifugation. The culture supernatant is then analyzed (e.g., by LC-MS) to determine how much of the substrate has been removed and how much of a given product is present.
as §3
In the case of B5, the “Bioconversion Assay” value is reported as “−”. B6 was tested, and the “Bioconversion Assay” value was “−”. With B7 the “Bioconversion Assay” value was “−”.

— US20110014669A1, “Production of 1,4 Butanediol in a Microorganism” (Microbia, Inc., priority 2009, published 2011)
